Positions count from the first letter of the chain named. One block for each binder: values may come before it.
Columns and labels:
[1] = target: T1, human epidermal growth factor receptor (human, UniProt P00533 25-1210); experiment: RRA, 125I-EGF competition on human placenta microsomal fraction
T1 construct: whole, on cells; also called EGF-R; EGF receptor

[2] = target: T1, human epidermal growth factor receptor; experiment: RRA, concentrated supernatants of transfected NSO cells

binding result [1]: no binding
B1: first version of humanized R3 antibody (R3-huVH(a) with R3-huVK) (antibody, human IgG1, V domains shown)
VH: QVQLQQSGAEVKKPGSSVKVSCKASGYTFTNYYIYWVRQAPGQGLEWIGGINPTSGGSNFNEKFKTRVTITVDESTNTAYMELSSLRSEDTAFYFCARQGLWFDSDGRGFDFWGQGSTVTVSS
VL: DIQMTQSPSSLSASVGDRVTITCRSSQNIVHSNGNTYLDWYQQTPGKAPKLLIYKVSNRFSGVPSRFSGSGSGTDFTFTISSLQPEDIATYYCFQYSHVPWTFGQGTKLQITR
notes: R3 CDRs grafted on human Eu (VH) and REI (VK) frameworks; human IgG1 / kappa constant regions; also called humanized (1) R3; version 1

binding result [2]: no binding
B2: hybrid humanized R3VH/murine R3VK (antibody, V domains shown)
VH: B1 VH
VL: DVLMTQIPLSLPVSLGDGASISCRSSQNIVHSNGNTYLDWYLQKPGQSPNLLIYKVSNRFSGVPDRFRGSGSGTDFTLKISRVEAEDLGVYYCFQYSHVPWTFGGGTKLEIK
notes: Human gamma-1 and kappa constant regions; tested as concentrated supernatant of transfected NSO cells; The hybrid was made before the further VH versions, so its humanized VH is read as the first version

binding result [1]: no binding
B3: reshaped R3VH-K66A67 with huVKR3 (antibody, V domains shown)
VH: B1 VH with R67K, V68A
VL: DIQMTQSPSSLSASVGDRVTITCRSSQNIVHSNGNTYLDWYQQTPGKAPKLLIYKVSNRFSGVPSRFSGSGSGTDFTFTISSLQPEDIATYYCFQYSHVPWTFGQGTKLQIT
notes: Human IgG1 / kappa; also called 66 and 67 changes
